Experimental data published in patent publication US20240240209A1, “SYNTHESIS OF ENANTIOPURE CIS-A-IRONE FROM A RENEWABLE CARBON SOURCE” (Agency for Science, Technology and Research, priority 2021, published 2024).
Numbering of substitutions follows the chain as printed. Names may count otherwise.

B1: pMT1_E153L: pMT1 with E153L (protein)
chain: MPQEARTPQQQVTADEVGDWYDKFGEVYHLTLGESVHCGLWFPPDAPVPQDMELVTMSSQAQDRYTDYLIETLDPKAGQHLLDIGCGTGRTALKAARQRGIAVTGVAVSKEQIAAANRLAAGHGLTERLTFEVADAMRLPYEDESFDCAWAILSLCHMDRAKALGEAWRVLKPGGDLLVLESVVTEELTEPETALFETLYAANVPPRLGEFFDIVSGAGFHTLSLKDLSANLAMTMNVFALGVYSRRAEFTERFGAEFVDGLLAGLGSAQETLIRKTRFFMATLRKPAV
B2: pMT1_E153G: pMT1 with E153G (protein)
chain: B1 chain with L153G
B3: pMT1_E153N: pMT1 with E153N (protein)
chain: B1 chain with L153N
B4: pMT1_E153H: pMT1 with E153H (protein)
chain: B1 chain with L153H
B5: pMT1_E153I: pMT1 with E153I (protein)
chain: B1 chain with L153I
B6: pMT1_E153P: pMT1 with E153P (protein)
chain: B1 chain with L153P
B7: pMT1_E153K: pMT1 with E153K (protein)
chain: B1 chain with L153K
B8: pMT1_E153M: pMT1 with E153M (protein)
chain: B1 chain with L153M
B9: pMT1_M236Q: pMT1 with M236Q (protein)
chain: B1 chain with L153E, M236Q
B10: pMT1_M236G: pMT1 with M236G (protein)
chain: B1 chain with L153E, M236G
B11: pMT1_M236I: pMT1 with M236I (protein)
chain: B1 chain with L153E, M236I
B12: pMT1_M236H: pMT1 with M236H (protein)
chain: B1 chain with L153E, M236H
B13: pMT1_M236L: pMT1 with M236L (protein)
chain: B1 chain with L153E, M236L
B14: pMT1_M236K: pMT1 with M236K (protein)
chain: B1 chain with L153E, M236K
B15: pMT1_M236N: pMT1 with M236N (protein)
chain: B1 chain with L153E, M236N
B16: pMT1_M236P: pMT1 with M236P (protein)
chain: B1 chain with L153E, M236P
B17: pMT1_R160G (protein)
chain: B1 chain with L153E, R160G
B18: pMT1_R160Q: pMT1 with R160Q (protein)
chain: B1 chain with L153E, R160Q
B19: pMT1_R160K: pMT1 with R160K (protein)
chain: B1 chain with L153E, R160K
B20: pMT1_R160H: pMT1 with R160H (protein)
chain: B1 chain with L153E, R160H
B21: pMT1_R160M: pMT1 with R160M (protein)
chain: B1 chain with L153E, R160M
B22: pMT1_R160L (protein)
chain: B1 chain with L153E, R160L
B23: pMT1_R160P: pMT1 with R160P (protein)
chain: B1 chain with L153E, R160P
B24: pMT1_R160N (protein)
chain: B1 chain with L153E, R160N
B25: pMT1_R160I: pMT1 with R160I (protein)
chain: B1 chain with L153E, R160I
B26: pMT1_Y200G: pMT1 with Y200G (protein)
chain: B1 chain with L153E, Y200G
B27: pMT1_Y200M: pMT1 with Y200M (protein)
chain: B1 chain with L153E, Y200M
B28: pMT1_Y200I: pMT1 with Y200I (protein)
chain: B1 chain with L153E, Y200I
B29: pMT1_Y200Q: pMT1 with Y200Q (protein)
chain: B1 chain with L153E, Y200Q
B30: pMT1_Y200N (protein)
chain: B1 chain with L153E, Y200N
B31: pMT1_Y200H: pMT1 with Y200H (protein)
chain: B1 chain with L153E, Y200H
B32: pMT1_Y200K: pMT1 with Y200K (protein)
chain: B1 chain with L153E, Y200K
B33: pMT1_Y200P: pMT1 with Y200P (protein)
chain: B1 chain with L153E, Y200P

experiment: Cell lysate reaction of pMT enzymes with psi-ionone, irones quantified by HS-SPME-GCMS; format: biochemical; conditions: pMT1_E153 mutants; AUC vs non-mutated (=1)
Protocol: Using the structure of pMT1 in complex with the cofactor S-adenosyl-L-homocysteine (SAH) and the substrate teleocidin A1 (PDB id: 5GM2) as a template, pMT1 bound to each of the four isomers of α-irone was modelled with the aim of identifying amino acid residues that could be critical to increase cis-α-irone or decrease trans-α-irone production (FIGS. 2d and 2e). […] Site-directed mutagenesis of the 24 residues was carried out with degenerative primers. Subsequently, the mutants of each site were pooled together, and examined if the activity or product-selectivity of the pooled mutants were increased (FIG. 8). This reduced the number of screening reactions to 24, which is manageable when a high-throughput enzymatic assay is not available. […] One residue was chosen and subjected to site-saturation mutagenesis by using degenerative primers containing NNN or NNK. The plasmid library was then transformed into E. coli BL21 (DE3) cells and plated on agar plate containing autoinduction media^19. […] Subsequently, the colonies were collected and resuspended in phosphate saline buffer. Equal number of cells was taken for lysis and cell lysate reactions were carried out in capped SPME-GC vials at 28° C. for 2 days. HS-SPME-GCMS analysis was used to quantify the amount of irones produced by each pooled-colony reaction. […] 24 residues including the control Gly85 (G85m) were subjected to site-saturation mutagenesis, using pMT1 as the template. […] The amount of cis-α-irone produced was estimated based on the area under the gas chromatogram curve (AUC). The fold change is calculated by comparing the AUC of cis-α-irone produced by the mutant enzyme to that of non-mutated.
For each pMT mutant, it was transformed into BL21 and grown in autoinduction media with 5 mM lactose at 20° C. for 36 hrs. Then, cells were pelleted and concentrated 10 times by adding 1 ml of PBS. The OD600 was measured and 40*600 OD*ul cells were transferred into a new 1.5 ml tube. The cells were spun down and resuspended in 600 μl of lysis buffer (1×DNase buffer, 150 mM NaCl, 0.5% glycerol, 1 mg/ml lysozyme and 20U of DNasel). The cells were incubated for 2 hrs at 20° C. with shaking at 300 rpm. Following that, 2 cycles of freeze-thaw was done to completely lyse the cells. At the end of the 2nd thawing, the cell lysate was used to setup a 1 ml reaction in 2 ml GC vials. The reaction consisted of 50 mM Tris (pH7), 10 mM MgCl2, 60 mM NaCl, 0.2 mM SAM and 10 mg/L of psi-ionone and caryophyllene each. To this, 500 μl of cell lysate was added while the remaining 100 μl was used for SDS-PAGE to analyze the total and soluble protein expression. The reaction was incubated for 2 days at 28° C., 300 rpm prior to extraction of cis-α-irone with 500 μl hexane. From this, 20 μl of organic layer was taken into 180 μl hexane for GCMS analysis.
For the mutant pMT activity screening, the reactants and products were analyzed by head space solid phase microextraction (HS-SPME) coupled with an Agilent 5977B gas chromatography (GC) system equipped with Agilent DB-5 ms column (30 m×250 μm×0.25 μm) and mass spectrometry (MS) with high efficiency source. The reaction mixtures were carried out in SPME vials which were incubated at 60° C. for 20 mins to allow the release of volatile compounds. The absorbent fiber (50/30 μm divinylbenzol/carboxen/polydimethyl-SPME fiber, SUPELCO) was then exposed to the headspace of the vial for 20 mins. The extracted analytes were desorbed at the GC inlet at 250° C. for 1 min and injected into GC with a split ratio of 200:1. The GC oven temperature increased from 50° C. to 140° C. at a rate of 10° C./min and held at 140° C. for 10 min. Subsequently, the temperature was increased to 320° C. at a rate of 60° C./min and held at 320° C. for 2 mins.

Molecule | fold change in cis-α-irone produced
B1 | 0.0
B2 | 0.0
B3 | 0.0
B4 | 0.0
B5 | 0.0
B6 | 0.0
B7 | 0.0
B8 | 0.0

same assay, conditions: pMT1_M236 mutants; AUC vs non-mutated (=1)

Molecule | fold change in cis-α-irone produced
B9 | 0.0
B10 | 0.0
B11 | 0.5
B12 | 2.6
B13 | 1.1
B14 | 0.0
B15 | 3.9
B16 | 0.0

same assay, conditions: pMT1_R160 mutants; AUC vs non-mutated (=1)

Molecule | fold change in cis-α-irone produced
B17 | 0.0
B18 | 1.3
B19 | 0.0
B20 | 1.0
B21 | 0.9
B22 | 0.9
B23 | 0.6
B24 | 0.8
B25 | 1.5

same assay, conditions: pMT1_Y200 mutants; AUC vs non-mutated (=1)

Molecule | fold change in cis-α-irone produced
B26 | 0.1
B27 | 0.4
B28 | 2.0
B29 | 0.1
B30 | 0.0
B31 | 0.2
B32 | 0.0
B33 | 0.0
